Where no end group is shown, it is not given here.

Assay [1] deals with T1, Anti-CD28 Fab (SEQ ID NOs: 696, 697).
T1 construct: In the phage ELISA the Fab was biotinylated and captured on neutravidin coated plates
The assay can be described thus: phage ELISA on captured anti-CD28 Fab; competitor: CD28 antigen pre-incubated on the Fab. For orientation: In an ELISA, binding on a coated surface is turned into a signal by an enzyme label.
T1 sequence (VH, as listed by the source, chain 1 of 2): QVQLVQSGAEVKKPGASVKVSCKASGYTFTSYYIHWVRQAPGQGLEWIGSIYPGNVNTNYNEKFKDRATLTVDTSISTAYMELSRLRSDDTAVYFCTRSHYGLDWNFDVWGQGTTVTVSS
T1 sequence (VL, as listed by the source, chain 2 of 2): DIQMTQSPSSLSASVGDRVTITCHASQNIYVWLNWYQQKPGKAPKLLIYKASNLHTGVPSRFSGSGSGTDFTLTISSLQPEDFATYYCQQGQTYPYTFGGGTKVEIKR
Method: (§1) After panning, phage infected bacteria were plated out and colonies picked into 96 well blocks. Clonal phage was then amplified and separated from bacterial cells via centrifugation.
(§2) Clonal phage were harvested as crude supematants and screened via standard ELISAs. […] Prior to the addition of clonal phage, wells were incubated with blocking buffer and CD28 antigen or blocking buffer alone. Without washing or aspirating, clonal phage supematants were then added to the wells and incubated for a short time. Wells were then washed followed by detection of bound phage using a horse radish conjugated anti-M13 antibody. Clonal phage of interest were then sent for sequence analysis.

For assay [2] the target is unchanged. The experiment in a line: phage ELISA; clonal phage supernatant on biotinylated anti-CD28 Fab captured on neutravidin, anti-M13 HRP detection.
Target sequence in this assay (VH, as listed by the source, chain 1 of 2): as the sequence (VH, as listed by the source, chain 1 of 2) above
Target sequence in this assay (VL, as listed by the source, chain 2 of 2): as the sequence (VL, as listed by the source, chain 2 of 2) above
Method: as §1, §2
In assay [3] the target is T2, Anti-CD28 Fab (SEQ ID NOs: 696, 697).
T2 construct: In the phage ELISA the Fab was biotinylated and captured on neutravidin coated plates
The experiment in a line: phage binding ELISA; biotinylated anti-CD28 Fab on neutravidin plate, clonal phage supernatant, anti-M13 HRP detection.
T2 sequence (VH, as listed by the source, chain 1 of 2): as the sequence (VH, as listed by the source, chain 1 of 2) above
T2 sequence (VL, as listed by the source, chain 2 of 2): as the sequence (VL, as listed by the source, chain 2 of 2) above

Assay [4] shares this target. The assay can be described thus: phage binding ELISA; Fab-coated wells pre-incubated with CD28 antigen as competitor, anti-M13 HRP detection.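 Note: crude clonal phage supernatants from panned colonies added to wells after blocking buffer plus CD28 treatment, bound phage measured after a brief incubation and washing.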
Target sequence in this assay (VH, as listed by the source, chain 1 of 2): as the sequence (VH, as listed by the source, chain 1 of 2) above
Target sequence in this assay (VL, as listed by the source, chain 2 of 2): as the sequence (VL, as listed by the source, chain 2 of 2) above
Method: as §1, §2
The target in assay [5] is T3, Anti-CD28 Fab (SEQ ID NOs: 696, 697).
T3 construct: Biotinylated and captured on neutravidin coated plates in the phage ELISA
The experiment in a line: phage ELISA; biotinylated anti-CD28 Fab on neutravidin plate, clonal phage supernatant, anti-M13 HRP.
T3 sequence (VH, as listed by the source, chain 1 of 2): as the sequence (VH, as listed by the source, chain 1 of 2) above
T3 sequence (VL, as listed by the source, chain 2 of 2): as the sequence (VL, as listed by the source, chain 2 of 2) above

Assay [6] shares this target. The assay can be described thus: phage ELISA; captured anti-CD28 Fab pre-incubated with CD28 antigen as competitor, anti-M13 HRP.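 Note: crude clonal phage supernatants added without washing after CD28 pre-incubation, bound phage detected with HRP anti-M13 antibody, reference wells got blocking buffer lacking CD28.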
Target sequence in this assay (VH, as listed by the source, chain 1 of 2): as the sequence (VH, as listed by the source, chain 1 of 2) above
Target sequence in this assay (VL, as listed by the source, chain 2 of 2): as the sequence (VL, as listed by the source, chain 2 of 2) above

B1: Phage-940 (peptide)
peptide: YCEGHSSEYMWKCL
As for B1, in assay [1], the “Anti-CD28 Fab signal in the presence of CD28 (phage binding ELISA)” value was 0.09. In addition, the “Anti-CD28 Fab signal (phage binding ELISA)” value in assay [2] turned out to be 1.63.

B2: Phage-928 (Peptide-87 library clone, SEQ ID NO: 1244) (peptide)
peptide: YCDGHSAEYLLKCL
modifications: cysteine pairing not given here; also: displayed fused to phage pIII protein, fusion end and linker not given here
notes: Tested as clonal phage supernatant; not shown: fused to the pIII filament protein of the bacteriophage
As to B2, the “Anti-CD28 Fab signal (phage binding ELISA)” value in assay [3] was determined as 1.65. Also, in assay [4], the “Anti-CD28 Fab signal in the presence of CD28 (phage binding ELISA)” value is 0.07.

B3: Phage-944 (peptide)
peptide: YCDGHSLEYIGKCL
As to B3, the “Phage binding ELISA, Anti-CD28 Fab signal” value in assay [5] turned out to be 1.63. In assay [6], the “Phage binding ELISA, Anti-CD28 Fab signal in the presence of CD28” value was 0.06.

B4: Phage-921 (Peptide-87 library clone, SEQ ID NO: 1237) (peptide)
peptide: YCDGHSEVYMAKCL
modifications: cysteine pairing not given here; also: fused to phage pIII
notes: as for B2
On to B4, for which the “Anti-CD28 Fab signal (phage binding ELISA)” value in assay [3] stood at 1.66. The “Anti-CD28 Fab signal in the presence of CD28 (phage binding ELISA)” value in assay [4] was 0.06.

B5: Phage-929 (Peptide-87 library clone, SEQ ID NO: 1245) (peptide)
peptide: YCDGHGPQYIQKCL
modifications: cysteine pairing not given here; also: displayed fused to phage pIII protein, fusion end and linker not given here
notes: as for B2
As for B5, the “Anti-CD28 Fab signal (phage binding ELISA)” value in assay [3] is 1.64. In addition, the “Anti-CD28 Fab signal in the presence of CD28 (phage binding ELISA)” value in assay [4] stood at 0.07.

B6: Phage-933 (peptide)
peptide: YCAGHVAEYMAKCL
For B6, the “Anti-CD28 Fab signal in the presence of CD28 (phage binding ELISA)” value in assay [1] was 0.06. For the same molecule, the “Anti-CD28 Fab signal (phage binding ELISA)” value in assay [2] came to 1.64.

B7: Phage-951 (peptide)
peptide: YCEGHAPQYIMKCL
As to B7, in assay [5], the “Phage binding ELISA, Anti-CD28 Fab signal” value turned out to be 1.62. Further, the “Phage binding ELISA, Anti-CD28 Fab signal in the presence of CD28” value in assay [6] amounted to 0.06.

B8: Phage-923 (Peptide-87 library clone, SEQ ID NO: 1239) (peptide)
peptide: YCEGHLAVYMEKCL
modifications: cysteine pairing not given here; also: displayed fused to phage pIII protein, fusion end and linker not given here
notes: as for B2
In the case of B8, the “Anti-CD28 Fab signal (phage binding ELISA)” value in assay [3] stood at 1.65. Besides, the “Anti-CD28 Fab signal in the presence of CD28 (phage binding ELISA)” value in assay [4] came out at 0.12.

B9: Phage-925 (Peptide-87 library clone, SEQ ID NO: 1241) (peptide)
peptide: YCAGHAAEYMTKCL
modifications: cysteine pairing not given here; also: displayed fused to phage pIII protein, fusion end and linker not given here
notes: as for B2
For the molecule B9, the “Anti-CD28 Fab signal (phage binding ELISA)” value in assay [3] came to 1.65. Further, the “Anti-CD28 Fab signal in the presence of CD28 (phage binding ELISA)” value in assay [4] worked out at 0.07.

B10: Phage-938 (peptide)
peptide: YCEGHDLIYMWKCL
For B10, the “Anti-CD28 Fab signal in the presence of CD28 (phage binding ELISA)” value in assay [1] turned out to be 0.06. Also, in assay [2], the “Anti-CD28 Fab signal (phage binding ELISA)” value worked out at 1.63.

B11: Phage-935 (peptide)
peptide: YCEGHMWEYMAKCL
Turning to B11, in assay [1], the “Anti-CD28 Fab signal in the presence of CD28 (phage binding ELISA)” value worked out at 0.13. Also, in assay [2], the “Anti-CD28 Fab signal (phage binding ELISA)” value came out at 1.64.

B12: Phage-924 (Peptide-87 library clone, SEQ ID NO: 1240) (peptide)
peptide: YCEGHSLMYMWKCL
modifications: cysteine pairing not given here; also: displayed fused to phage pIII protein, fusion end and linker not given here
notes: as for B2
As to B12, the “Anti-CD28 Fab signal (phage binding ELISA)” value in assay [3] worked out at 1.65. For the same molecule, in assay [4], the “Anti-CD28 Fab signal in the presence of CD28 (phage binding ELISA)” value was 0.08.

B13: Phage-948 (peptide)
peptide: YCDGHLSEYMSKCL
B13: in assay [5], the “Phage binding ELISA, Anti-CD28 Fab signal” value was determined as 1.62. Further, in assay [6], the “Phage binding ELISA, Anti-CD28 Fab signal in the presence of CD28” value turned out to be 0.06.

B14: Phage-922 (Peptide-87 library clone, SEQ ID NO: 1238) (peptide)
peptide: YCDGHSLLYLSKCL
modifications: cysteine pairing not given here; also: fused to phage pIII
notes: as for B2
With B14, in assay [3], the “Anti-CD28 Fab signal (phage binding ELISA)” value came to 1.65. The “Anti-CD28 Fab signal in the presence of CD28 (phage binding ELISA)” value in assay [4] came out at 0.07.

B15: Phage-942 (peptide)
peptide: YCEGHLEQYMQKCL
For the molecule B15, the “Anti-CD28 Fab signal in the presence of CD28 (phage binding ELISA)” value in assay [1] came to 0.06. Also, in assay [2], the “Anti-CD28 Fab signal (phage binding ELISA)” value turned out to be 1.63.

B16: Phage-927 (Peptide-87 library clone, SEQ ID NO: 1243) (peptide)
peptide: YCDGHAQEYRLKCL
modifications: cysteine pairing not given here; also: displayed fused to phage pIII protein, fusion end and linker not given here
notes: as for B2
On to B16, for which the “Anti-CD28 Fab signal (phage binding ELISA)” value in assay [3] was found to be 1.65. Moreover, the “Anti-CD28 Fab signal in the presence of CD28 (phage binding ELISA)” value in assay [4] worked out at 0.07.

B17: Phage-939 (peptide)
peptide: YCAGHAPEYMSKCL
As to B17, the “Anti-CD28 Fab signal in the presence of CD28 (phage binding ELISA)” value in assay [1] stood at 0.05. In assay [2], the “Anti-CD28 Fab signal (phage binding ELISA)” value came to 1.63.

B18: Phage-932 (peptide)
peptide: YCEGHTAEHMQKCL
For the molecule B18, in assay [1], the “Anti-CD28 Fab signal in the presence of CD28 (phage binding ELISA)” value was 0.05. Moreover, in assay [2], the “Anti-CD28 Fab signal (phage binding ELISA)” value worked out at 1.64.

B19: Phage-946 (peptide)
peptide: YCAGHLPEYMGKCL
As to B19, the “Phage binding ELISA, Anti-CD28 Fab signal” value in assay [5] turned out to be 1.63. Also, the “Phage binding ELISA, Anti-CD28 Fab signal in the presence of CD28” value in assay [6] stood at 0.07.

B20: Phage-931 (peptide)
peptide: YCEGHSAQYMHKCL
Turning to B20, the “Anti-CD28 Fab signal in the presence of CD28 (phage binding ELISA)” value in assay [1] turned out to be 0.06. Besides, the “Anti-CD28 Fab signal (phage binding ELISA)” value in assay [2] turned out to be 1.64.

B21: Phage-945 (peptide)
peptide: YCDGHSEAFMQKCL
On to B21, for which the “Phage binding ELISA, Anti-CD28 Fab signal” value in assay [5] is 1.63. For the same molecule, in assay [6], the “Phage binding ELISA, Anti-CD28 Fab signal in the presence of CD28” value is 0.07.

B22: Phage-949 (peptide)
peptide: YCEGHVTEYMQKCL
B22: the “Phage binding ELISA, Anti-CD28 Fab signal” value in assay [5] is 1.62. Further, the “Phage binding ELISA, Anti-CD28 Fab signal in the presence of CD28” value in assay [6] is 0.08.

B23: Phage-950 (peptide)
peptide: YCDGHAQEYMDKCL
As for B23, the “Phage binding ELISA, Anti-CD28 Fab signal” value in assay [5] stood at 1.62. Besides, the “Phage binding ELISA, Anti-CD28 Fab signal in the presence of CD28” value in assay [6] was determined as 0.08.

B24: Phage-937 (peptide)
peptide: YCAGHSLEYMQKCL
With B24, the “Anti-CD28 Fab signal in the presence of CD28 (phage binding ELISA)” value in assay [1] is 0.07. Further, in assay [2], the “Anti-CD28 Fab signal (phage binding ELISA)” value was determined as 1.63.

B25: Phage-926 (Peptide-87 library clone, SEQ ID NO: 1242) (peptide)
peptide: YCDGHSVEYMEKCL
modifications: cysteine pairing not given here; also: displayed fused to phage pIII protein, fusion end and linker not given here
notes: as for B2
B25: the “Anti-CD28 Fab signal (phage binding ELISA)” value in assay [3] worked out at 1.65. Besides, the “Anti-CD28 Fab signal in the presence of CD28 (phage binding ELISA)” value in assay [4] was determined as 0.09.

B26: Phage-941 (peptide)
peptide: YCDGHLDVYRAKCL
As for B26, in assay [1], the “Anti-CD28 Fab signal in the presence of CD28 (phage binding ELISA)” value is 0.09. The “Anti-CD28 Fab signal (phage binding ELISA)” value in assay [2] worked out at 1.63.

B27: Phage-947 (peptide)
peptide: YCAGHLAIYMSKCL
Regarding B27, in assay [5], the “Phage binding ELISA, Anti-CD28 Fab signal” value was determined as 1.63. Besides, the “Phage binding ELISA, Anti-CD28 Fab signal in the presence of CD28” value in assay [6] is 0.08.

B28: Phage-936 (peptide)
peptide: YCDGHDVEYMSKCL
Regarding B28, the “Anti-CD28 Fab signal in the presence of CD28 (phage binding ELISA)” value in assay [1] amounted to 0.05. In addition, the “Anti-CD28 Fab signal (phage binding ELISA)” value in assay [2] was 1.64.

B29: Phage-943 (peptide)
peptide: YCEGHSWVYMAKCL
Regarding B29, the “Anti-CD28 Fab signal in the presence of CD28 (phage binding ELISA)” value in assay [1] came to 0.07. Further, the “Anti-CD28 Fab signal (phage binding ELISA)” value in assay [2] came to 1.63.

B30: Phage-934 (peptide)
peptide: YCDGHATEYMQKCL
In the case of B30, in assay [1], the “Anti-CD28 Fab signal in the presence of CD28 (phage binding ELISA)” value was determined as 0.1. In assay [2], the “Anti-CD28 Fab signal (phage binding ELISA)” value worked out at 1.64.

B31: Phage-919 (Peptide-87 library clone, SEQ ID NO: 1235) (peptide)
peptide: YCDGHSREYMNKCL
modifications: cysteine pairing not given here; also: fused to phage pIII
notes: as for B2
With B31, the “Anti-CD28 Fab signal (phage binding ELISA)” value in assay [3] worked out at 1.66. Besides, the “Anti-CD28 Fab signal in the presence of CD28 (phage binding ELISA)” value in assay [4] was determined as 0.06.

B32: Phage-930 (Peptide-87 library clone, SEQ ID NO: 1246) (peptide)
peptide: YCEGHIAEYMQKCL
modifications: cysteine pairing not given here; also: displayed fused to phage pIII protein, fusion end and linker not given here
notes: as for B2
For B32, the “Anti-CD28 Fab signal (phage binding ELISA)” value in assay [3] came to 1.64. In assay [4], the “Anti-CD28 Fab signal in the presence of CD28 (phage binding ELISA)” value was 0.13.

B33: Phage-920 (Peptide-87 library clone, SEQ ID NO: 1236) (peptide)
peptide: YCDGHDVEYMAKCL
modifications: cysteine pairing not given here; also: fused to phage pIII
notes: as for B2
With B33, in assay [3], the “Anti-CD28 Fab signal (phage binding ELISA)” value amounted to 1.66. For the same molecule, in assay [4], the “Anti-CD28 Fab signal in the presence of CD28 (phage binding ELISA)” value is 0.07.
